Where “and” joins values, the source holds several entries; their conditions need not be identical. Equal values may be shown once. Read-outs that look alike come from different tables or passages of the source.
B1: PhnO (natural protein, UniProt P16691 1-144, looked up)
chain: MPACELRPATQYDTDAVYALICELKQAEFDHHAFRVGFNANLRDPNMRYHLALLDGEVVGMIGLHLQFHLHHVNWIGEIQELVVMPQARGLNVGSKLLAWAEEEARQAGAEMTELSTNVKRHDAHRFYLREGYEQSHFRFTKAL
B2: D-tagatose-1,6-bisphosphate aldolase subunit GatZ (natural protein, E. coli, UniProt P0C8J8 1-420, looked up)
chain: MKTLIARHKAGEHIGICSVCSAHPLVIEAALAFDRNSTRKVLIEATSNQVNQFGGYTGMTPADFREFVFTIADKVGFARERIILGGDHLGPNCWQQENADAAMEKSVELVKEYVRAGFSKIHLDASMSCAGDPIPLAPETVAERAAVLCFAAESVATDCQREQLSYVIGTEVPVPGGEASAIQSVHITHVEDAANTLRTHQKAFIARGLTEALTRVIAIVVQPGVEFDHSNIIHYQPQEAQPLAQWIENTRMVYEAHSTDYQTRTAYWELVRDHFAILKVGPALTFALREAIFALAQIEQELIAPENRSGCLAVIEEVMLDEPQYWKKYYRTGFNDSLLDIRYSLSDRIRYYWPHSRIKNSVETMMVNLEGVDIPLGMISQYLPKQFERIQSGELSAIPHQLIMDKIYDVLRAYRYGCAE
B3: GrxB (natural protein, E. coli, UniProt P0AC59 1-215, looked up)
chain: MKLYIYDHCPYCLKARMIFGLKNIPVELHVLLNDDAETPTRMVGQKQVPILQKDDSRYMPESMDIVHYVDKLDGKPLLTGKRSPAIEEWLRKVNGYANKLLLPRFAKSAFDEFSTPAARKYFVDKKEASAGNFADLLAHSDGLIKNISDDLRALDKLIVKPNAVNGELSEDDIQLFPLLRNLTLVAGINWPSRVADYRDNMAKQTQINLLSSMAI

Columns and labels:
SEC [1] = target: the molecule itself; assay: SEC
SEC [2] = target: the molecule itself; assay: SEC; remark: listed apart in the source

Row | Protein | stoichiometry N (SEC [1]) | stoichiometry N (SEC [2])
1 | B1 | 2 | 
2 | B2 |  | 2 and 4
3 | B3 |  | 2
